The DeepSol protein solubility set

Test: soluble on expression in E. coli; label from the status in PepcDB or PDB records

Row | Sequence | soluble on expression in E. coli
1 | MGSDKIHHHHHHMAQSDKDLTLTPLKGKSGQAYIGTYPNGDKIFVKINTTPILAALAKEQIAPQLLWAKRLGNGDMMSAQEWLDGRLLTRADMNSKQIIQVLLQMHKSKPLVNQLLQLNYKVETPLDLLLSWERSAPYQISENAYLQSVVAEMKRNLPDFKKDYATIVHGDVRHSNWVITTSGLVYLVDWDSVRVTDRMYDVAHILSHYIPHTRWVEWLSYYGYKQNTKVFQKIKWYGQLSYLSQILKYYENRDMENVNQEIYELRKFRESF | not soluble
2 | MNYLFKNGRYMNEEGKIVATDLLVQDGKIAKVAENITADNAEVIDVNGKLIAPGLVDVHVHLREPGGEHKETIETGTLAAAKGGFTTICAMPNTRPVPDCREHMEDLQNRIKEKAHVNVLPYGAITVRQAGSEMTDFETLKELGAFAFTDDGVGVQDASMMLAAMKRAAKLNMAVVAHCEENTLINKGCVHEGKFSEKHGLNGIPSVCESVHIARDILLAEAADCHYHVCHVSTKGSVRVIRDAKRAGIKVTAEVTPHHLVLCEDDIPSADPNFKMNPPLRGKEDHEALIEGLLDGTIDMIATDHAPHTAEEKAQGIERAPFGITGFETAFPLLYTNLVKKGIITLEQLIQFLTEKPADTFGLEAGRLKEGRTADITIIDLEQEEEIDPTTFLSKGKNTPFAGWKCQGWPVMTIVGGKIAWQKESALV | not soluble
3 | MSLDYTYADDSLTLHTDMYQINMMQTYWELGRADLHAVFECYFREMPFNHGYAIFAGLERLVNYLENLTFTESDIAYLREVEEYPEDFLTYLANFEFKCTVRSALEGDLVFNNEPLIQIEGPLAQCQLVETALLNMVNFQTLIATKAARIKSVIGDDPLLEFGTRRAQELDAAIWGTRAAYIGGADATSNVRAGKIFGIPVSGTHAHSLVQSYGNDYEAFMAYAKTHRDCVFLVDTYDTLKAGVPSAIRVAREMGDKINFLGVRIDSGDMAYISKRVREQLDEAGFTEAKIYASNDLDENTILNLKMQKSKIDVWGVGTKLITAYDQPALGAVFKLVSIEGEDGQMKDTIKLSSNAEKVTTPGKKQVWRITRKSDKKSEGDYVTLWNEDPRQEEEIYMFHPVHTFINKYVRDFEARPVLQDIFVEGKRVYELPTLDEIKQYAKENLDSLWEEYKRDLNPQKYPVDLSTDCWNHKMNLLEKVRKDVKHLTETVNKEAEGHHHHHH | soluble
4 | ELVMTQTPLSLPVSLGDQASISCRSSQSLVHSNGNTYLHWYLQKPGQSPKFLIYKVSNRFSGVPDRFSGSGSGTDFILKISRVEAEDLGVYFCFQSTHFFPTFGGGTKLEIKRTVAAPSVFIFPPSDEQLKSGTASVVCLLNNFYPREAKVQWKVDNALQSGNSQESVTEQDSKDSTYSLSSTLTLSKADYEKHKVYACEVTHQGLSSPVTKSFNRGEC | soluble
5 | MKFGWVNVIGDNWEEKKKIVTTALESSIPVVVAEPEDIEKIKELGNIKVASHSLDADIVLVNKNDNIEFLKEAKNLGKETAIYIPIESKEDEEFASEVARFGFVDNIILEGRDWTIIPLENLIADLFHRDVKIVASVNSVDEAKVAYEILEKGTDGVLLNPKNLEDIKELSKLIEEMNKEKVALDVATVTKVEPIGSGDRVCIDTCSLMKIGEGMLIGSYSRALFLVHSETVENPYVATRPFRVNAGPVHAYILCPGNKTKYLSELKAGDKVLIVDKDGNTREAIVGRVKIERRPLVLIEAEYKGDIIRTILQNAETIRLVNEKGEPISVVDLKPGDKVLIKPEEYARHFGMAIKETIIEKLEHHHHHH | soluble
6 | MGSDKIHHHHHHMISEISHDVIWDLYEGEDYRDKILAEKWDVVFGEKILEMEDTLFVQSLRELELALKYAAARKDLETIKARFNLLLYTPELQGAKIKEILFQVLKFYNSFSIFALVSEKGVHRHAYVDFVTGGNYLSLIYHEDLPLNINSHTVFIDDVPPDFSPAGLGGRKIILGMDSTPKNNIPFVEIPPLRERKMDIPYMLDGVIKSLQFQGKTVKIDDDLTKLLIEYHWPGNTQEFLEKVYEIITLENPVDQAMKIASGIDEIKGLNLKEFVDSLVEFVEKKVIKKALEENEGNRKKVCEVLNMNYKTLSYKMKKYGLT | not soluble
7 | GANNDMPVEQILEAELAVDPKIDTYIDAQKDPVTNICQAADKQLFTLVEWAKRIPHFTELPLEDQVILLRAGWNELLIAGFSHRSIMAKDGILLATGLHVHRSSAHQAGVGTIFDRVLTELVAKMRDMKMDKTELGCLRAVVLFNPDAKGLTAVQEVEQLREKVYASLEEYTKSRYPEEPGRFAKLLLRLPALRSIGLKCLEHLFFFKLIGDQPIDTFLMEMLENPSPAT | soluble
8 | MTVDPASHITIPEADLARLRHCNHHDPHGFYGWHETEAGSVIRTRQVGATQVNLLIDDTSHVMTPIGDDIFAIDLGHRERADYRLEVTWPDQEPQVKADPYYFLPTVG | not soluble
9 | MTLNIQGIAASSGIAIAKAFRLENPEFNIEQKSITNEAAEIARLEAALEKAKTELEAIKDHAFAELGADKAAIFEAHLLVLNDPELVNPVKDKVNSEKVNAEFAMDEVASMFISMFENMDNEYMKERAADIRDVTKRVLAHLLGINFSNPGTNSEEVIIIAEDLTPSDTAQLNRKYAKGFTTDIGGRTSHSAIMARSMEIPAVVGTKVVMEKIQNGDIVIIDGLDGEVIVNPSEETLRSFEEKKAKFEEQKAEWAKLKDQATVTSDGHHVELVANIGTLNDVQGIIDNGGEGVGLYRTEFLYMGRDNLPTEEEQFEAYKAVLEGVKEGQPVVVRTLDIGGDKELPYLHLPKEMNPFLGYRAIRLCLDEQDVFRTQLRALLRASVYGNLKIMFPMIATLDEFRQAKAILLEEKAKLVEVGTTVSDSIEVGMMVEIPASAVLADQFAKEVDFFSIGTNDLIQYTMAADRMNEQVSYLYQPYNLSILRLVKMVIDAAHKEGKWAGMCGEMAGDSLAIPLLLGLGLDEFSMSATSILPARTQLSKLSKAEMETLAEKALMMSTAEEVVELVKSI | not soluble
10 | MGSDKIHHHHHHMTAQNGQDVWHEDILDDSAIAVLSYPIGEMQRDQLHSHGYHQIAMCEQPGATLLLGSQVVSIPWNGALLVPSGTDHALTSETRCVIRCIYFKAALPSTSIGSLFLNRLTKELIKEISTSYVTERSRRLMEACLYDQIGQLLWSSGSGMMPPSRSLRVICKHIFDTPEDDTPVATLAKDAGLSERSLRRLARDELGCTISQIRTRCRIYKATQLLQAGVPVKLIAADVGYQSNSAFFSAFREIMGMSPARFQAECAASRSLSHLRLK | not soluble
11 | MAVQLLENWLLKEQEKIQTKYRHLNHISVVEPNILFIGDSIVEYYPLQELFGTSKTIVNRGIRGYQTGLLLENLDAHLYGGAVDKIFLLIGTNDIGKDVPVNEALNNLEAIIQSVARDYPLTEIKLLSILPVNEREEYQQAVYIRSNEKIQNWNQAYQELASAYMQVEFVPVFDCLTDQAGQLKKEYTTDGLHLSIAGYQALSKSLKDYLY | soluble
12 | MSLRITRIRLYKTDLPYVDGSYGWGAGNAITVARASVVVIDTDAGLQGCGEFTPCGENYMIAHSEGVDAFARLAAPQLLGQDPRQVARMERLMDHLVQGHGYAKAPFDAAFWDILGQATGQPVWMLLGGKLCDGAPMYRVAPQRSEAETRAELARHRAAGYRQFQIKVGADWQSDIDRIRACLPLLEPGEKAMADANQGWRVDNAIRLARATRDLDYILEQPCRSYEECQQVRRVADQPMKLDECVTGLHMAQRIVADRGAEICCLKISNLGGLSKARRTRDFLIDNRMPVVAEDSWGGEIASAAVAHFAASTPEEFLINSTDLMNYNTRSTGLGGPTVHQGRLYASDTPGLGVTPDFNSLGAPVADWALPEGHHHHHH | soluble
13 | MGSDKIHHHHHHMQTAARRSFDYDMPLIQTPTSACQIRQAWAKVADTPDRETADRLKDEIKALLKETNAVLVAHYYVDPLIQDLALETGGCVGDSLEMARFGAEHEAGTLVVAGVRFMGESAKILCPEKTVLMPDLEAECSLDLGCPEEAFSAFCDQHPDRTVVVYANTSAAVKARADWVVTSSVALEIVSYLKSRGEKLIWGPDRHLGDYICRETGADMLLWQGSCIVHNEFKGQELAALKAEHPDAVVLVHPESPQSVIELSDVVGSTSKLLKAAVSRPEKKFIVATDLGILHEMQKQAPDKQFIAAPTAGNGGSCKSCAFCPWMAMNSLGGIKYALTSGRNEILLDRKLGEAAKLPLQRMLDFAAGLKRGDVFNGMGPA | not soluble
14 | MGSDKIHHHHHHMMNNLKRILKNPRLILIFILSRYCHWIDDKTYLCIMYFIYFGKLLHLNSPRTFNEKLQWLKLYDRHPEYTQMVDKATVKEYVASIIGEKYIIPTLGVWENFDDIDFENIPSSFVLKCTHDSGGVVICENKNLFDVEKARSKLLKSMKKNYYYVGREYPYKDIKPRIIAEKYMVDESHIELKDYKIHLFHGIPNFIQVDFDRFTSHHRNLYTIDWKPLGKAIKYPAVYEREIDKPIVLDEMLELAMKLAFNIPYVRADFYCIGNKVYFGELTFYHGSGFETFSPKSFDEELGALIKLS | not soluble
15 | MAFKLPNLPYAYDALEPYIDQRTMEFHHDKHHNTYVTKLNATVEGTELEHQSLADMIANLDKVPEAMRMSVRNNGGGHFNHSLFWEILSPNSEEKGGVIDDIKAQWGTLDEFKNEFANKATTLFGSGWTWLVVNDGKLEIVTTPNQDNPLTEGKTPILLFDVWEHAYYLKYQNKRPDYMTAFWNIVNWKKVDELYQAAK | not soluble
16 | MSLINARLIAFEDQWVPALNAPLKQAILADSQDAQLAAAMTYSVLAGGKRLRPLLTVATMQSLGVTFVPERHWRPVMALELLHTYSLIHDDLPAMDNDALRRGEPTNHVKFGAGMATLAGDGLLTLAFQWLTATDLPATMQAALVQALATAAGPSGMVAGQAKDIQSEHVNLPLSQLRVLHKEKTGALLHYAVQAGLILGQAPEAQWPAYLQFADAFGLAFQIYDDILDVVSSPAEMGKATQKDADEAKNTYPGKLGLIGANQALIDTIHSGQAALQGLPTSTQRDDLAAFFSYFDTERVNEGHHHHHH | soluble
17 | MKPKLILMSHGRMAEETLASTQMIVGELADAAIVSMTAEDGLSGTQAKLAAILKEAGNVPTLVLADLKGGTPCNVAMMAMGTYPQLRVVAGLNLAMAIEAAVSPVENVDELAAYLTQIGQSAVTTIDLPELTDEEEFEE | soluble
18 | PPLVANQVVTCPDKKSTAAVILTPTENHFTLKCPKTALTEPPTLAYSPNRQICPAGTTSSCTSKAVTLSSLIPEAEDSWWTGDSASLDTAGIKLTVPIEKFPVTTQTFVVGCIKGDDAQSCMVTVTVQARASSVVNNVARCSYGADSTLGPVKLSAEGPTTMTLVCGKDGVKVPQDNNQYCSGTTLTGCNEKSFKDILPKLTENPWQGNASSDKGATLTIKKEAFPAESKSVIIGCTGGSPEKHHCTVKLEFAG | soluble
19 | MSLNQIDRLLTIMQRLRDPENGCPWDKEQTFATIAPYTLEETYEVLDAIAREDFDDLRGELGDLLFQVVFYAQMAQEEGRFDFNDICAAISDKLERRHPHVFADSSAENSSEVLARWEQIKTEERAQKAQHSALDDIPRSLPALMRAQKIQKRCANVGFDWTTLGPVVDKVYEEIDEVMYEARQAVVDQAKLEEEMGDLLFATVNLARHLGTKAEIALQKANEKFERRFREVERIVAARGLEMTGVDLETMEEVWQQVKRQEIDLEGGSHHHHHH | soluble
20 | MGSDKIHHHHHHMEHIQSSIEKILNRPDVAESVRAIHQRVLSHPGVIMFLRTHPEIDQRMIERGMLKLNEYAEQMNGNQIIEKKAVIEGYQPVLHLEKGQIMVAYEKTQALRDRENERALEKKFKSLFLPDEVRDANFSDFDLTTTDRKLALRAASQFLNTVRSKQQVKGLYLHGSFGVGKTYLLAAIGNALKKERVATILVHAPGFVSEAKRRIRSDSFDTFLESFQTVPVLLIDDIGAESISPWVRDELFGIILQYRMMHRLPTLFSSNLSYDELELHFGITNDQGDKLKAMRLMERIRTTTNPVEFLGENRRRY | not soluble
